A value given as a limit tells only on which side of the number the result lay.

In assay [1] the target is HIV-PRR87K^YFP (HIV-1 (HIV-1NL4-3)) (UniProt P12497). The assay is described as follows: FRET-HIV-1 assay, co-transfected Cos-7 cells.
Assay [2] concerns the target HIV-PRD29A^YFP (HIV-1 (HIV-1NL4-3)) (UniProt P12497). The assay is described as follows: FRET-HIV-1 assay, co-transfected Cos-7 cells.
The target in assay [3] is HIV-PRT26A^YFP (HIV-1 (HIV-1NL4-3)) (UniProt P12497). The assay is described as follows: FRET-HIV-1 assay, co-transfected Cos-7 cells.
The target in assay [4] is HIV-PRD29N^YFP (HIV-1 (HIV-1NL4-3)) (UniProt P12497). The assay is described as follows: FRET-HIV-1 assay, co-transfected Cos-7 cells.
Assay [5] concerns the target YFP-tagged wild-type HIV-1 protease subunit (PRWT^YFP) (HIV-1 (HIV-1NL4-3)) (UniProt P12497). The assay is described as follows: FRET, acceptor photobleaching, co-transfected Cos-7 cells.
For assay [6] the target is unchanged. The assay is described as follows: FRET, acceptor photobleaching, co-transfected Cos-7 cells (n=23).
Assay [7] has the same target. As to the kind of experiment: FRET, acceptor photobleaching, co-transfected Cos-7 cells, no-drug control of FIG. 2D.
Assay [8] shares this target. The assay is described as follows: FRET, acceptor photobleaching, co-transfected Cos-7 cells, no-drug control of FIG. 2F.

On to “HIV-PRR87K^CFP (from UniProt P12497) (enzyme)”, for which, in assay [1], the average CFP A/B ratio is below 1.
As for “HIV-PRD29A^CFP (from UniProt P12497) (enzyme)”, the average CFP A/B ratio in assay [2] was below 1.
For “HIV-PRT26A^CFP (from UniProt P12497) (enzyme)”, the average CFP A/B ratio in assay [3] was below 1.
As to “HIV-PRD29N^CFP (from UniProt P12497) (enzyme)”, in assay [4], the average CFP A/B ratio is below 1.
For “CFP-tagged wild-type HIV-1 protease subunit (PRWT^CFP) (from UniProt P12497) (enzyme)”, in assay [5], the CFP^A/B ratio was determined as 1.38, the YFP^A/B ratio was 0.17 and the ratio of CFP fluorescence after photobleaching to CFP fluorescence prior to photobleaching was 1.19. For the same substance, in assay [6], the CFP^A/B ratio worked out at 1.24 and the YFP^A/B ratio was 0.47. In addition, the ratio of ECFP fluorescence after photobleaching to before photobleaching in assay [7] was found to be 1.27. In assay [8], the FRET ratio came out at 1.29.

These data come from US20100113582A1.
